Data reported in patent publication US20170290877A1.
Non-standard residues stand in square brackets, D forms with d. No end group written: not given here.

Biological target: JNK in primary mouse cortical neurons
Assay: cell-based or functional assay

[dD][dQ][dS][dR][dP][dV][dQ][dP][dF][dL][dN][dL][dT][dT][dP][dR][dK][dP][dR][dP][dP][dR][dR][dR][dQ][dR][dR][dK][dK][dR]G [D-TAT-IB1(s)] gave a JNK activation in Aβ42-stressed PKR-/- neurons (immunoblot), XG-102 at 10 µM of -35%, a JNK activity as ratio pJNK/JNK after 1 mM H2O2 (immunoblot), XG-102 at 10 µM (% of controls) of 45 and a c-Jun phosphorylation in Aβ42-stressed WT neurons (immunoblot), XG-102 at 10 µM of -74%.
